In patent US9266964:

Biological target: human plasma kallikrein (human) (UniProt P03952)
Test: ELISA; signal on coated biotinylated human plasma kallikrein divided by signal on streptavidin; Fab

Sequence of human plasma kallikrein (human) (P03952 20-390, chain 1 of 2): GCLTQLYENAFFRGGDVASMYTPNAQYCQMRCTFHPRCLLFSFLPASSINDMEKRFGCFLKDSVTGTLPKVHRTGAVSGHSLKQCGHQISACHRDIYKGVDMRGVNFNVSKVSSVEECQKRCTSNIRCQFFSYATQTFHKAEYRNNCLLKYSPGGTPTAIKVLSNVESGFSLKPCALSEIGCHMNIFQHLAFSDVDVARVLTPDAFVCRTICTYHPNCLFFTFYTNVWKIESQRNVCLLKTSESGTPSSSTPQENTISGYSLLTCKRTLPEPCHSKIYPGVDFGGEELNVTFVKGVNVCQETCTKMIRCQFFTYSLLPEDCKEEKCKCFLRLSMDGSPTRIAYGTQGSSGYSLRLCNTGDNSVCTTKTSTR
Sequence of human plasma kallikrein (human) (P03952 391-638, chain 2 of 2): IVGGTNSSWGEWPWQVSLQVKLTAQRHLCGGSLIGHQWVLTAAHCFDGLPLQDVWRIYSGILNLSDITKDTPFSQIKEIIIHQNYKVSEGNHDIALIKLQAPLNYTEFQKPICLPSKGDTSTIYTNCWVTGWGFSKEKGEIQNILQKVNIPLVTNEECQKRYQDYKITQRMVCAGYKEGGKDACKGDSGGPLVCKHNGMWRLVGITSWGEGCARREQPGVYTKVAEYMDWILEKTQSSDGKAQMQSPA

| Human pKal ELISA (T/B) (T/B (target signal / background signal)) | Binder |
| --- | --- |
| 1.5 | M28-F01 (Fab, V domains shown) VH: EVQLLESGGGLVQPGGSLRLSCAASGFTFSVYLMHWVRQAPGKGLEWVSGISPSGGYTQYADSVKGRFTISRDNSKNTLYLQMNSLRAEDTAVYYCARPGGLDAFDIWGQGTMVTVSS VL: DIQMTQSPSSLSASVGDRVTITCRASQSINTYLNWYQQKPGKAPKVLIHAASTLESGVPSRFSGSGSGTDFTLTISSLQPEDFATYYCQQSYSTPPTFGQGTKVEIK |
| 2 | M29-E02 (Fab, V domains shown) VH: EVQLLESGGGLVQPGGSLRLSCAASGFTFSRYPMMWVRQAPGKGLEWVSVIYPSGGDTFYADSVKGRFTISRDNSKNTLYLQMNSLRAEDTAVYYCASGDDYLWEAAVYWGQGTLVTVSS VL: QSVLTQPPSVSEAPRQRVTISCSGSSSNIGNNAVSWYQQLPGKAPKLLIYYDDLLPSGVSDRFSGSKSGTSASLAISGLRSEDEADYYCAAWDDSLNGFVFGTGTKVTVL |
